From publication PMC12447514, “Modulation of Amyloid‑β Aggregation by Surface Proteins from Pathogens Associated with Alzheimer’s Disease” (ACS Chemical Neuroscience, 2025) come the findings set out here.

This series concerns the molecule itself. The experiment in a line: SEC; HiLoad 16/600 Superdex 75 pg in PBS or 20 mM sodium phosphate, 200 μM EDTA pH 8; oligomeric state verified in Supporting Figure S2 (method not shown).

For orientation: stoichiometry N means the number of molecules, sites or subunits per partner or assembly.

B1: Borrelia burgdorferi outer surface protein C (residues 11-191) (natural protein)
chain: ASTNPDESAKGPNLTEISKKITDSNAVVLAVKEVEALLSSIDELAKTIGKKIEANGLGNEADKNGSLLAGAYAISTLIKQKLDGLKGLEGLNKEIAEAKKCSEAFTKKLQDSNADLGKHNATDADSKEAILKTNGTKTKGAKELEELFKSVESLSKAAKEALSNSVKELTSPVVAESPKKP
notes: outer surface protein C of Borrelia burgdorferi sensu lato, UniProt P94245, residues 11-191; the N-terminal signal peptide was replaced by His-tagged polyubiquitin-B and a TEV protease cleavage site; also called OspC; Bb outer surface protein C; not shown: polyubiquitin-B with C-terminal His-tag (UniProt J3QS39), N-terminal, cleaved
Regarding B1, the “stoichiometry N” value came to 2.
